For data set [1], the system named is pancreatic acinar carcinoma (CA20948). As to the kind of experiment: Imaging of individual organs removed from CA20948 tumor-bearing rat. Type of data set: in vivo. The note with it: organs removed about 24 hours post administration. How it is done: Individual organs were removed at about 24 hours post Cytate 1 administration and imaged.
Data set [2] relates to pancreatic acinar carcinoma expressing the SST-2 receptor (CA20948). As to the kind of experiment: In vivo fluorescence imaging of rat pancreatic acinar carcinoma (CA20948). Details: species or system Lewis rat. The source says: (§1) A non-invasive in vivo fluorescence imaging apparatus was employed to assess the efficacy of contrast agents developed for tumor detection in animal models. A LaserMax Inc. laser diode of nominal wavelength 780 nm and nominal power of 40 mW was used. The detector was a Princeton Instruments model RTE/CCD-1317-K/2 CCD camera with a Rodenstock 10 mm F2 lens (stock #542.032.002.20) attached. An 830 nm interference […] (CVI Laser Corp., part # F10-830-4-2) was mounted in front of the CCD input lens such that only emitted fluorescent light from the contrast agent was imaged. Typically, an image of the animal was taken pre-injection of contrast agent. This image was subsequently subtracted (pixel by pixel) from the post injection images. However, the background subtraction was […] done once the animal had been removed from the sample area and returned at a later time for images taken several hours post injection.
The imaging apparatus and the procedure used are described in Example 12. Rat pancreatic acinar carcinoma expressing the SST-2 receptor (CA20948) was induced by solid implant technique in the left flank area, and palpable masses were detected nine days post implant. The images obtained at 2 and 30 minutes post injection are shown in FIG. 7E-F. FIGS. 7E-F are images of a rat with an induced pancreatic acinar carcinoma (CA20948) expressing the SST-2 receptor imaged at two minutes (FIG. 7E) and 30 minutes (FIG. 7F) post injection.
The imaging apparatus and the procedure used are described in Example 12 except that each animal received 500 μl of a 1.0 mg/mL solution of Cytate 1 solution of 25% dimethylsulfoxide in water.
Rat pancreatic acinar carcinoma expressing the SST-2 receptor (CA20948) were induced by solid implant technique in the left flank area, and palpable masses were detected 24 days post implant. Images were obtained at various times post injection.
Cytate 1 was evaluated in the CA20948 Lewis rat model. […] At 27 hours post injection, the animal was again imaged (FIG. 9B).

The nature of data set [3]: Monitoring of the blood clearance profile of peptide-dye conjugates. The note with it: bolus injection in lateral tail vein; monitored at 830 nm after excitation at 780 nm. The format is in vivo, Sprague-Dawley or Fischer 344 rats. The source says:
A laser of appropriate wavelength for excitation of the dye chromophore was directed into one end of a fiber optic bundle and the other end was positioned a few millimeters from the ear of a rat. A second fiber optic bundle was also positioned near the same ear to detect the emitted fluorescent light and the other end was directed into the optics and electronics for data collection. An interference filter (IF) in the collection optics train was used to select emitted fluorescent light of the appropriate wavelength for the dye chromophore.
Sprague-Dawley or Fischer 344 rats were used in these studies. The animals were anesthetized with urethane administered via intraperitoneal injection at a dose of 1.35 g/kg body weight. After the animals had achieved the desired plane of anesthesia, a 21 gauge butterfly with 12″ tubing was placed in the lateral tail vein of each animal and flushed with heparinized saline. The animals were placed onto a heating pad and kept warm throughout the entire study. […]
Incident laser light delivered from the fiber optic was centered on the affixed ear. Data acquisition was then initiated, and a background reading of fluorescence was obtained prior to administration of the test agent. […] The data were analyzed using a standard sigma plot software program for a one compartment model.

Data set [4] has as its system Prostrate tumors (Dunning R3327-H). As to the kind of experiment: In vivo fluorescence imaging of prostatic carcinoma (R3327-H). The arrangement: species or system young male Copenhagen rats.
Text: as §1
The imaging apparatus and the procedure used are described as in Example 12. Prostrate tumors (Dunning R3327-H) were induced in young male Copenhagen rats in the left flank area from a solid implant. These tumors grow very slowly and palpable masses were present 4-5 months post implant. FIGS. 7C-D are images of a rat with an induced prostatic carcinoma tumor (R3327-H) imaged at two minutes (FIG. 7C) and 30 minutes (FIG. 7D) post injection.

The test system of a further data set is DSL 6A tumors. As to the kind of experiment: In vivo fluorescence imaging of pancreatic ductal adenocarcinoma (DSL 6A). Details: species or system male Lewis rats.
Text: as §1
DSL 6A tumors were induced in male Lewis rats in the left flank area by the introduction of material from a solid (donor) implant and the tumors were palpable in approximately 14 days. The animals were anesthetized with xylazine; ketamine; acepromazine 1.5:1.5:0.5 at 0.8 mL/kg via intramuscular injection. The area of the tumor (left flank) was shaved to expose tumor and surrounding surface area. […]

[5] abbreviates: 500 μl of 1.0 mg/mL solution in 25% dimethylsulfoxide in water, CA20948 tumor.

Molecules are shown by their SMILES.

Consider `C[C@@H](O)[C@H](NC(=O)[C@@H]1CSSC[C@H](NC(=O)[C@@H](Cc2ccccc2)NC(=O)CCN2C(=CC=CC=CC=CC3=[N+](CCC(=O)O)c4ccc5ccccc5c4C3(C)C)C(C)(C)c3c2ccc2ccccc32)C(=O)N[C@@H](Cc2ccc(O)cc2)C(=O)N[C@H](Cc2c[nH]c3ccccc23)C(=O)N[C@@H](CCCCN)C(=O)N[C@@H]([C@@H](C)O)C(=O)N1)C(=O)O` [Cytate 1, monoOctreotate-Bisethylcarboxymethylindocyanine dye], for which, in data set [1], the “organ uptake: adrenals” value is listed as “high uptake”, the “organ uptake: heart” value is on record as “significantly lower uptake”, the “organ uptake: liver” value is given as “significantly lower uptake” and the “organ uptake: muscle” value is listed as “significantly lower uptake”. For the same compound, in data set [1], the “organ uptake: pancreas” value was “high uptake”, the “organ uptake: spleen” value is “significantly lower uptake” and the “organ uptake: tumor tissue” value was “high uptake”. In addition, in data set [2] (setting [5]), the “time at which uptake into the tumor was maximal” value was “about five” and the “time at which uptake into the tumor was seen” value is recorded as “two”. Moreover, the “uptake at 45 minutes in rats with the CA20948 tumor cell line” value in data set [2] (45 minutes post injection) is “still quite intense”. The “localization of dye in the tumor” value in data set [2] (45 minutes post injection, CA20948 Lewis rat model) is on record as “localization of this dye was observed in the tumor”. Further, the tumor visualization entry in data set [2] (27 hours post injection, CA20948 Lewis rat model) is “Tumor visualization was easily observed”. Moreover, the “persistence of dye fluorescence in the tumor” value in data set [2] (CA20948 tumor, post-injection) is “remained intense in the tumor for several hours”. Besides, the “fluorescence signal in blood (ear) after bolus injection” value in data set [3] is listed as “rapidly increased to a peak value. The signal then decayed as a function of time”.

Regarding `C[C@@H](O)[C@H](NC(=O)[C@@H]1CSSC[C@H](NC(=O)[C@@H](Cc2ccccc2)NC(=O)CCN2C(=CC=CC=CC=CC3=[N+](CCC(=O)N[C@H](Cc4ccccc4)C(=O)N[C@H]4CSSC[C@@H](C(=O)N[C@H](C(=O)O)[C@@H](C)O)NC(=O)[C@H]([C@@H](C)O)NC(=O)[C@H](CCCCN)NC(=O)[C@@H](Cc5c[nH]c6ccccc56)NC(=O)[C@H](Cc5ccc(O)cc5)NC4=O)c4ccc5ccccc5c4C3(C)C)C(C)(C)c3c2ccc2ccccc32)C(=O)N[C@@H](Cc2ccc(O)cc2)C(=O)N[C@H](Cc2c[nH]c3ccccc23)C(=O)N[C@@H](CCCCN)C(=O)N[C@@H]([C@@H](C)O)C(=O)N1)C(=O)O` [Cytate 2, bisOctreotate-Bisethylcarboxymethylindocyanine dye], in data set [3], the “fluorescence signal in blood (ear) after bolus injection” value is listed as “rapidly increased to a peak value. The signal then decayed as a function of time”.

Regarding `CC1(C)C(/C=C/C=C/C=C/C=C2\N(CCCCS(=O)(=O)O)c3ccc4ccccc4c3C2(C)C)=[N+](CCCCS(=O)(=O)[O-])c2ccc3ccccc3c21` [ICG, indocyanine green], the “dye intensity in the tumor” value in data set [4] (30 minutes post-ICG injection, R3327-H tumor) is “considerably diminished”; in data set [2] (30 minutes post-ICG injection, CA20948 tumor), “considerably diminished and almost absent”; in the data set with DSL 6A tumors (30 minutes post-ICG injection, bolus injection of 0.5 ml aqueous solution of ICG, DSL 6A tumor), “considerably diminished”. The “perfusion of the agent into the tumor” value in data set [4] (Dunning R3327H (prostate) tumor line, CCD camera) is “slow perfusion of the agent over time into the tumor”; in data set [2] (CA20948 (pancreatic) tumor line, CCD camera) it was “only a slight but transient perfusion that was absent after only 30 minutes post injection”; with DSL 6A tumors (DSL 6/A (pancreatic) tumor line, CCD camera), “slow perfusion of the agent over time into the tumor”. The “uptake at 45 minutes in rats with the CA20948 tumor cell line” value in data set [2] (45 minutes post injection) is “mostly cleared”.
